Experimental data as given in patent US20250281533A1 (LG CHEM, published 2025).

Target: T1, mucin1 (MUC1) naturally expressed on human breast cancer cell lines (human, UniProt P15941 24-1255)
T1 construct: whole, on cells; The cell line of each entry is named under assay or readout; also called MUC1 on T47D cells; MUC1 on HCC70 cells
Test: flow cytometry (PE MFI, corrected to G03 at 380 ug/mL) on T47D cells

T1 sequence (P15941 24-1255): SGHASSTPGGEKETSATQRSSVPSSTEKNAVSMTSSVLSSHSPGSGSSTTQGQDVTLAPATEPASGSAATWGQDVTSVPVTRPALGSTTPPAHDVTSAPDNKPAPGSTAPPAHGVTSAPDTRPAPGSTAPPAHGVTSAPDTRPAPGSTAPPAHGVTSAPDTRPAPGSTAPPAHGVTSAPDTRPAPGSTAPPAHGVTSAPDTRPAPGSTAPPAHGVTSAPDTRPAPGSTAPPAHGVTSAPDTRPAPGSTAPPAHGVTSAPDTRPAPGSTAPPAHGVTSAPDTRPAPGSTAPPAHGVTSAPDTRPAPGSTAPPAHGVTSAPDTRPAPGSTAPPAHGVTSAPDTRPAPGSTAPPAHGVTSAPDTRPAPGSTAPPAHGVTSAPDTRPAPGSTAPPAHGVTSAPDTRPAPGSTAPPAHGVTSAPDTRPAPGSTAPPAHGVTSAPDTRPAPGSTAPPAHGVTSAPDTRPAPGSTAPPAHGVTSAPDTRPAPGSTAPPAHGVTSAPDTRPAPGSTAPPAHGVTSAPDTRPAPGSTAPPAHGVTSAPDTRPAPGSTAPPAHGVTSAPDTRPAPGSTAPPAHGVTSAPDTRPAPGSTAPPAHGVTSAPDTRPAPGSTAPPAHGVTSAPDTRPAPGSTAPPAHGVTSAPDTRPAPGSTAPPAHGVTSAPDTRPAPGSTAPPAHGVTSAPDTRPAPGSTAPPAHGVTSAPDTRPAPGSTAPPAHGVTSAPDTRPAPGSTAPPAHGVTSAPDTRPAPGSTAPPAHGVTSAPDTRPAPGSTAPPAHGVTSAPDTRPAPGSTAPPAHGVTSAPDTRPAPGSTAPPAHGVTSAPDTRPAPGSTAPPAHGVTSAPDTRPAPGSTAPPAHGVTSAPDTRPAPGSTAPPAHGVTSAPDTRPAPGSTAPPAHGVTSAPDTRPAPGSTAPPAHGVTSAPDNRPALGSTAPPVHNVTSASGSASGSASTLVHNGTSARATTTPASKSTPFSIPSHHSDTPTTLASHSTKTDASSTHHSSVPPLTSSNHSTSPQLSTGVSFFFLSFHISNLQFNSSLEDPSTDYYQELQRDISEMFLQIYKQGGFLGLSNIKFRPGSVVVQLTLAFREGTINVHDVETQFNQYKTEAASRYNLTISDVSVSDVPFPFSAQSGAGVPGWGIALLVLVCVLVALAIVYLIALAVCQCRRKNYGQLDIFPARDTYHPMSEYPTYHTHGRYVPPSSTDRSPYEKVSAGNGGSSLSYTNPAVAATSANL

Binder	EC50 [µg/mL]
positive control scFv G03 (scFv) scFv: EVQLVQSGAEVKKPGATVKISCKVSGYTFTSYWMHWVQQAPGKGLEWIGYINPGTGYIEYNQKFKDRVTITADKSTDTAYMELSSLRSEDTAVYYCASSTAPFDYWGQGTLVTVSSGGGGSGGGGSGGGASEIVLTQSPGTLSLSPGERATLSCKASQDIKSYLSWYQQKPGQAPRLLIYYATRLADGIPDRFSGSGSGTDFTLTISRLEPEDFAVYYCLQYDESPYTFGQGTKLEIK	3.56
scFv 2447_3A09 (scFv, also called #5) scFv: EVQLLESGGGLVQPGRSLRLSCAATGFTFDDYAMHWVRQAPGKGLEWVSGISWNSGSIGYADSVKGRFTISRDNAKNSLYLQMNSLRAEDTASYYCAKDVSSGWYWYAFDIWGQGTLVTVSSGGGGSGGGGSGGGASSYELTQDPAVSVALGQTVRITCQGDSLRSYYASWYQQKPGQAPVLVIYGKNNRPSGIPGRFSGSSSGNTASLTVTGAQAEDEADYYCNSRDSGGSVVFGGGTKLTVL	2.2
scFv 2447_3C08 (scFv) scFv: EVQLLESGGGLVQPGGSLRLSCAASGFTFDDYAMHWVRQAPGKGLEWVSGISWNSGSIGYADSVKGRFTISRDNAKNSLYLQMNSLRAEDTALYYCAKDRGSGYEGNYYGMDVWGQGTLVTVSSGGGGSGGGGSGGGASSYELTQDPAVSVALGQTVRITCQGDSLRSYYASWYQQKPGQAPVLVIYGKNNRPSGIPDRFSGTTSGNTASLTITGAQAEDEADYYCNSRDSSGNHYVFGTGTKVTVL	2.04
scFv 2447_3H08 (scFv, also called #10) scFv: EVQLLESGGGLVQPGRSLRLSCAASGFTFDDYAMHWVRQAPGKGLEWVSGISWNSGSIDYADSVKGRFTISRDNSKNTLYLQMNSLRAEDTAVYYCARDRSSGWYTGSFDYWGQGTLVTVSSGGGGSGGGGSGGGASSYELTQDPAVSVALGQTVRITCQGDSLRSYYASWYRQKPGQAPVLVIYGKNNRPSGIPDRFSGSSSGNTASLTIIGAQAEDEADYYCQSRDSSDNRVLFGGGTKVTVL	5.6
scFv 2447_3A12 (scFv, also called #6) scFv: EVQLVQSGAEVKKPGASVKVSCKASGYTFTSYGISWVRQAPGQGLEWMGWISAYNGNTNYAQKLRGRVTMTTDTSTSTAYMELRSLRSDDTAVYYCARDPHILTGYYRGGWFDPWGQGTLVTVSSGGGGSGGGGSGGGASSYELTQDPAVSVVLGQTVRITCQGDSLRSYYASWYQQKPGQAPVLVIYGKNNRPSGIPDRFSGSSSGNTASLTITGAQAEDEADYYCNSRDSSGNHRVFGGGTKLTVL	0.75
scFv 2447_3B07 (scFv) scFv: QVQLVESGGVVVQPGGSLRLSCAASGFTFDDYAMHWVRQAPGRGLEWVSLTSWDGGSTYYADSVKGRFTISRDNSKNSLYLQMNSLRAEDTALYYCAKDHSSGWYNGGMDVWGQGTMVTVSSGGGGSGGGGSGGGASSYELTQDPAVSVALGQTVRITCQGDSLRSYYASWYQQKPGQAPVLVIYGKNNRPSGIPDRFSGSSSGNTASLTITGAQAEDEADYYCNSRDSSGNHVVFGGGTKLTVL	3.47
scFv 2447_3H02 (scFv, also called #9) scFv: EVQLLESGGGLVQPGRSLRLSCAASGFTFDDYAMHWVRQAPGKGLEWVSGISWDSGSIGYADSVKGRFTISRDNAKNSLYLQMNSLRAEDTALYYCAKDVSSGWYWYAFDIWGQGTLVTVSSGGGGSGGGGSGGGASSYELTQDPAVSVALGQTVRITCQGDILRSYYASWYQQKPGQAPVLVIYGKNNRPSGIPDRFSGSSSGNTASLTITGAQAEDEADYYCNSRDSSGNRVVFGGGTKLTVL	1.6
scFv 2447_3A01 (scFv) scFv: EVQLLESGGGLVQPGGSLRLSCAASGFTFDDYAMHWVRQAPGKGLEWVSGISWNSGSIVYADFVKGRFTISRDNAKNSLYLQMNSLRAEDTALYYCAKDISSGWYPGTFDYWGQGTLVTVSSGGGGSGGGGSGGGASSYELTQDPAVSVALGQTVRITCQGDSLRSYYASWYQQKPGQAPVLVIYGKNNRPSGIPDRFSGSSSGNTASLTVTGAQAEDEADYYCSSRDSSDDVVFGGGTQLTVL	11.1
scFv 2447_3A08 (scFv) scFv: EVQLVQSGAEVKKPGASVKVSCKASGYTFTSYGISWVRQAPGQGLEWMGWISAYNGNTNYAQKLQGRVTMTTDTSTSTAYMELRSLRSDDTAVYYCARDRATIFGVVTPFDYWGQGTLVTVSSGGGGSGGGGSGGGASSYELTQDPAVSVALGQTVRITCQGDSIRSYSASWYQQKPGQAPRLVIYGKNNRPSGIPDRVSGSTSGNTASLTVTGAQAEDEADYYCNSRDSSGNRVVFGGGTQLTVL	3.76
scFv 2447_2H08 (scFv) scFv: EVQLVQSGAEVKKPGASVKVSCKASGYTFTNYGISWVRQAPGQGLEWMGWISAYNGNTNYAQKLQGRVTMTTDTSTSTAYMELRSLRSDDTAVYYCARDPHILTGYYRGGWFDPWGQGTTVTVSSGGGGSGGGGSGGGASSYELTQDPAVSVALGQTVTITCQGDSLRTSYAGWLQQKPGQAPVLVLYGKTSRPSGIPDRFSGSTSGNTASLTITGAQAEDEAEYFCHSRDSNDNYLEVVFGGGTKLTVL	130
